This series concerns the molecule itself. Put plainly: negative-stain EM of the precipitate formed after tag cleavage; self-assembly into capsid-like structures. The source says:
Given that dArc Iresembles a Gag protein, and that retroviral Gag proteins have the ability to auto-assemble into capsids, the precipitate was examined at the EM level by negative staining. The presence of round structures of about 39.3±5.2 nm was seen, which resembled HIV capsids. FIGS. 8A and 8B.

B1: purified dArc1 protein, bacterially produced, after cleavage of the HIS-MBP tag (other, Drosophila, UniProt Q7K1U0 1-254, looked up)
chain: MAQLTQMTNEQLRELIEAVRAAAVGAAGSAAAAGGADASRGKGNFSACTHSFGGTRDHDVVEEFIGNIETYKDVEGISDENALKGISLLFYGMASTWWQGVRKEATTWKEAIALIREHFSPTKPAYQIYMEFFQNKQDDHDPIDTFVIQKRALLAQLPSGRHDEETELDLLFGLLNIKYRKHISRHSVHTFKDLLEQGRIIEHNNQEDEEQLATAKNTRGSKRTTRCTYCSFRGHTFDNCRKRQKDRQEEQHEE
notes: Self-assembles into capsid-like structures of about 39.3±5.2 nm; also called His-MBP-dArc1 (before cleavage)
For the protein B1, the binding result is “binds”.

The record behind these values is US12723246 (UNIVERSITY OF MASSACHUSETTS, dated 2026).
